Tests used:
[1] = target: T1, terpene synthase (TPS; OncSBTPS) (Oncidium hybrid cultivar, UniProt A0A3R5SMM9); experiment: GC-MS (SPME) of reaction products; format: biochemical; details: 37 °C, 4 h; products linalool and ocimene
T1 construct: recombinant purified protein
T1 sequence (A0A3R5SMM9 1-551): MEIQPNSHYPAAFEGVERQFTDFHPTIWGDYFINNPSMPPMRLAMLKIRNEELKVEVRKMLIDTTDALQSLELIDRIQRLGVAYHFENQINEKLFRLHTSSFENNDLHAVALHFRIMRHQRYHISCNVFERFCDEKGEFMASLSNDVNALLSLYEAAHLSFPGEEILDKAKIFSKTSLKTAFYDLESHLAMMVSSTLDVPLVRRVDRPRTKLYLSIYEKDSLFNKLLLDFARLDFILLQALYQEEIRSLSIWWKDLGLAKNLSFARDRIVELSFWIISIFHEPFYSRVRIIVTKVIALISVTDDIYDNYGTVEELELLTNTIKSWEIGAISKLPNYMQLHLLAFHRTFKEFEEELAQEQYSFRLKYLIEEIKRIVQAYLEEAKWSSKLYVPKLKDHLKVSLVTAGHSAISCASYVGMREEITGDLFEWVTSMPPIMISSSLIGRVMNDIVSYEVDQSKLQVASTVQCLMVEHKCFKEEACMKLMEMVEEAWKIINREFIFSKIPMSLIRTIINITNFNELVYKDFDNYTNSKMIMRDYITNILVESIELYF

OncSBCCA1 [2] = target: T2, OncSBCCA1 (Oncidium hybrid Sharry Baby, UniProt A0A7L5RYG3 1-622); experiment: EMSA; 0-15 ug CCA1 in 10 uL; BSA; 10 uL with 2 uL 5X buffer (5X: 50 mM Tris-HCl, 750 mM KCl, 2.5 mM EDTA, 62.5% glycerol), i.e. 1X 10 mM Tris-HCl, 150 mM KCl, 0.5 mM EDTA, 12.5% glycerol; BSA; 30 min; pH and temperature not stated; native PAGE in 0.5X TAE, 150 V; details: protein: recombinant; tags: His-tag (pET28a); label: 6-FAM (ligated with T4 ligase)
T2 sequence (A0A7L5RYG3 entry or part of it): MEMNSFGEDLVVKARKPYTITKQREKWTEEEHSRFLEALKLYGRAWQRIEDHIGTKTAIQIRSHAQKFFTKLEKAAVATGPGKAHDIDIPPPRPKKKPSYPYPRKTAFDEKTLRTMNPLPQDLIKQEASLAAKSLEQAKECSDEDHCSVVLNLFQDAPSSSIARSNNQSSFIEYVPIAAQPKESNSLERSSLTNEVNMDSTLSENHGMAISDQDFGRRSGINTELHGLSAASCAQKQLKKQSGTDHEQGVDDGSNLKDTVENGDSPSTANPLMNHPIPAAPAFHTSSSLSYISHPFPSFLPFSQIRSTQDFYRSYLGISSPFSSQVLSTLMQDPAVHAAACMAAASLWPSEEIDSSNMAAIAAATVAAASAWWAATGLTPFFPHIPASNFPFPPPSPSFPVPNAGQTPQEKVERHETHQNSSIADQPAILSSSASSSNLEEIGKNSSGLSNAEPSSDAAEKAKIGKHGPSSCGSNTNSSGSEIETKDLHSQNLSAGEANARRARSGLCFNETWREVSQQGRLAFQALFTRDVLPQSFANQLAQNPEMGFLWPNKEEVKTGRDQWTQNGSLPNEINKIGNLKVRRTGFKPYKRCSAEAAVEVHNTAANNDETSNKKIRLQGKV

OncSBCCA1 [3] = target: T2, OncSBCCA1; experiment: competition; 50x unlabeled competitor abolished the CCA1-probe signal; 10 uL with 2 uL 5X buffer (5X: 50 mM Tris-HCl, 750 mM KCl, 2.5 mM EDTA, 62.5% glycerol), i.e. 1X 10 mM Tris-HCl, 150 mM KCl, 0.5 mM EDTA, 12.5% glycerol; BSA; 30 min; pH and temperature not stated; native PAGE in 0.5X TAE, 150 V; details: protein: recombinant; tags: His-tag (pET28a)

CC(C)=CCC/C(C)=C/COP(=O)(O)OP(=O)(O)O [GDP, geranyl diphosphate] was tested, and the “GC-MS (SPME) of reaction products” value [1] was “TPS recombinant protein was purified, then fed with the precursor GDP”.

B1: CBS probe (TPS promoter, 24-mer) (dsDNA)
DNA 1: TATTTTAGAGATTTTTACATACAT
DNA 2: ATGTATGTAAAAATCTCTAAAATA
B1: binds (OncSBCCA1 [2]).

B2: unlabeled CBS competitor (24-mer) (dsDNA)
DNA 1: TATTTTAGAGATTTTTACATACAT
DNA 2: ATGTATGTAAAAATCTCTAAAATA
B2: binds (OncSBCCA1 [3]).
